Experimental data reported in PMC6400186, “Structure of mammalian plasma fetuin-B and its mechanism of selective metallopeptidase inhibition” (IUCrJ, 2019).

What was measured:
Assay in all cases: enzyme inhibition assay (fluorogenic substrate), Ki by Morrison's equation; fetuin-B variant titrated against enzyme; 37°C, 150 mM sodium chloride, 50 mM Tris-HCl pH 7.4, 0.01% Brij 35, triplicate; enzyme and substrate 1.0 nM and 195 µM for astacin, 0.5 nM and 26 µM for meprin β, 0.7 nM and 26 µM for ovastacin
Settings in all cases: both partners purified
human meprin β = molecular target: T1, human meprin β (human, UniProt Q16820 62-652)
T1 sequence (looked up): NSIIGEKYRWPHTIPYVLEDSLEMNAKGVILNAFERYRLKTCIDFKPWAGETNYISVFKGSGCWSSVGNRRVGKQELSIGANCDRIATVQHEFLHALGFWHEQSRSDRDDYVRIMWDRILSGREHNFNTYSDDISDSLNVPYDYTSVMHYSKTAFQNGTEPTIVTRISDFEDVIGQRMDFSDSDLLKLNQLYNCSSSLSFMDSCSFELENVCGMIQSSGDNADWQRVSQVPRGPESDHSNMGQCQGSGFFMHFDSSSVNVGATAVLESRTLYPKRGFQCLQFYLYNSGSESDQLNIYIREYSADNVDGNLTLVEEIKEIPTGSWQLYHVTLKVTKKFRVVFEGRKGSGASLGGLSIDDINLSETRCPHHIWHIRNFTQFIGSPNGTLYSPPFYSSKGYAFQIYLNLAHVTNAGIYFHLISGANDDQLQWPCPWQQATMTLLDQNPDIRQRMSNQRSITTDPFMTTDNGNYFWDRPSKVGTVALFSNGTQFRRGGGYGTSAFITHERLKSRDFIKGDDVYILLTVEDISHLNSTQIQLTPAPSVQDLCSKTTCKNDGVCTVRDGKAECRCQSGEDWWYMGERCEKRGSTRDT

crayfish astacin = molecular target: T2, crayfish astacin (European freshwater crayfish Astacus …, UniProt P07584 50-251)
T2 construct: astacin, Astacus astacus, UniProt P07584; Carries a catalytic zinc ion; also called archetypal astacin; source: purified from the digestive fluid of the European freshwater crayfish Astacus astacus L
T2 sequence (P07584 50-251): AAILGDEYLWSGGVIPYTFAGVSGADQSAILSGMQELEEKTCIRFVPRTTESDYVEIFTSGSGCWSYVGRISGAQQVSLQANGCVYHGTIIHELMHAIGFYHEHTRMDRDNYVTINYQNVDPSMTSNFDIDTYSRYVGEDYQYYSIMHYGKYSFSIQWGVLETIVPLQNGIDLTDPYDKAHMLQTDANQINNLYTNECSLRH

mouse ovastacin = molecular target: T3, mouse ovastacin (mouse, UniProt Q6HA09 85-435)
T3 sequence (looked up): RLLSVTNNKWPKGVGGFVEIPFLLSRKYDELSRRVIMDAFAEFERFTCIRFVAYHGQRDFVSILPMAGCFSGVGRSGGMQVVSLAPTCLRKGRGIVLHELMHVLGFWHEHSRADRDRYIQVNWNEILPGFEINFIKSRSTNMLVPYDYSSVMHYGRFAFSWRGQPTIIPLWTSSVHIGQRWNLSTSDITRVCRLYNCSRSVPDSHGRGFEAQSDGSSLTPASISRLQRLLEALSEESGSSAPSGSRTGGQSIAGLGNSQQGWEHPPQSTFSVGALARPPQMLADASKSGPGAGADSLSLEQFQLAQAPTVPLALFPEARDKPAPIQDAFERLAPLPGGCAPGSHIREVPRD

Binder	Ki (human meprin β) [nM]	Ki (crayfish astacin) [nM]	Ki (mouse ovastacin) [nM]	loss of inhibitory potency (change of Ki) against wild-type mouse fetuin-B (human meprin β)	loss of inhibitory potency (change of Ki) against wild-type mouse fetuin-B (crayfish astacin)	loss of inhibitory potency (change of Ki) against wild-type mouse fetuin-B (mouse ovastacin)
mouse fetuin-B (natural protein, UniProt Q9QXC1 19-388, looked up, N-glycans at N40 and N139, mouse fetuin-B, UniProt Q9QXC1; residues R29-P388 (molecule B) and Q28-P388 (molecule D) are modelled in the complex; also called mFB; murine fetuin-B; source: baculovirus-transduced High Five cells, purified (Ni-NTA); not shown: His6, C-terminal, kept) RSPPAPPLPQRPLSPLHPLGCNDSEVLAVAGFALQNINRDQKDGYMLSLNRVHDVREHYQEDMGSLFYLTLDVLETDCHVLSRKAQKDCKPRMFYESVYGQCKAMFHINKPRRVLYLPAYNCTLRPVSKRKTHTTCPDCPSPIDLSNPSALEAATESLAKFNSKSPSKKYELVKVTKAMNQWVSGPAYYVEYLIKEAPCTKSQASCSLQHSDSEPVGICQGSTVQSSLRHVPLIQPVEKSVTVTCEFFESQAQVPGDENPAVTQGPQKLPQKNTAPTSSPSVTAPRGSIQHLPELDDEKPEESKGGSPEEAFPVQLDLTTNPQGDTLDVSFLYLEPGDKKLVVLPFPGKEQRSAECPGPEKENNPLVLPP	0.081	0.1	0.046	–	–	–
mouse fetuin-B P155A+D156A (natural protein, UniProt Q9QXC1 19-388, looked up, also called mFB_(P155A,D156A); double mutant; source: ExpiCHO-S cells, purified (Ni-NTA)) RSPPAPPLPQRPLSPLHPLGCNDSEVLAVAGFALQNINRDQKDGYMLSLNRVHDVREHYQEDMGSLFYLTLDVLETDCHVLSRKAQKDCKPRMFYESVYGQCKAMFHINKPRRVLYLPAYNCTLRPVSKRKTHTTCAACPSPIDLSNPSALEAATESLAKFNSKSPSKKYELVKVTKAMNQWVSGPAYYVEYLIKEAPCTKSQASCSLQHSDSEPVGICQGSTVQSSLRHVPLIQPVEKSVTVTCEFFESQAQVPGDENPAVTQGPQKLPQKNTAPTSSPSVTAPRGSIQHLPELDDEKPEESKGGSPEEAFPVQLDLTTNPQGDTLDVSFLYLEPGDKKLVVLPFPGKEQRSAECPGPEKENNPLVLPP	–	–	–	4 orders of magnitude	2 orders of magnitude	4 orders of magnitude
mouse fetuin-B D156A (natural protein, UniProt Q9QXC1 19-388, looked up, also called mFB_(D156A); source: ExpiCHO-S cells, purified (Ni-NTA)) RSPPAPPLPQRPLSPLHPLGCNDSEVLAVAGFALQNINRDQKDGYMLSLNRVHDVREHYQEDMGSLFYLTLDVLETDCHVLSRKAQKDCKPRMFYESVYGQCKAMFHINKPRRVLYLPAYNCTLRPVSKRKTHTTCPACPSPIDLSNPSALEAATESLAKFNSKSPSKKYELVKVTKAMNQWVSGPAYYVEYLIKEAPCTKSQASCSLQHSDSEPVGICQGSTVQSSLRHVPLIQPVEKSVTVTCEFFESQAQVPGDENPAVTQGPQKLPQKNTAPTSSPSVTAPRGSIQHLPELDDEKPEESKGGSPEEAFPVQLDLTTNPQGDTLDVSFLYLEPGDKKLVVLPFPGKEQRSAECPGPEKENNPLVLPP	–	–	–	~2 orders of magnitude	~2 orders of magnitude	~4 orders of magnitude
mouse fetuin-B P155A (natural protein, UniProt Q9QXC1 19-388, looked up, also called mFB_(P155A); source: ExpiCHO-S cells, purified (Ni-NTA)) RSPPAPPLPQRPLSPLHPLGCNDSEVLAVAGFALQNINRDQKDGYMLSLNRVHDVREHYQEDMGSLFYLTLDVLETDCHVLSRKAQKDCKPRMFYESVYGQCKAMFHINKPRRVLYLPAYNCTLRPVSKRKTHTTCADCPSPIDLSNPSALEAATESLAKFNSKSPSKKYELVKVTKAMNQWVSGPAYYVEYLIKEAPCTKSQASCSLQHSDSEPVGICQGSTVQSSLRHVPLIQPVEKSVTVTCEFFESQAQVPGDENPAVTQGPQKLPQKNTAPTSSPSVTAPRGSIQHLPELDDEKPEESKGGSPEEAFPVQLDLTTNPQGDTLDVSFLYLEPGDKKLVVLPFPGKEQRSAECPGPEKENNPLVLPP	–	–	–	~1 orders of magnitude	~1 orders of magnitude	~2 orders of magnitude
chimeric mutant mFBABA (other, mouse, UniProt P29699 19-136, looked up, mouse fetuin-A CY1 domain, UniProt P29699, residues A19-P136; mouse fetuin-B CY2 domain with linker, UniProt Q9QXC1, residues V145-Q269; mouse fetuin-A CTR domain, UniProt P29699, residues P254-I345; also called chimera of mouse fetuin-B with CY1 and CTR from mouse fetuin-A; source: adenovirus-infected COS-7 cells, purified (Ni-NTA)) APQGTGLGFRELACDDPEAEQVALLAVDYLNNHLLQGFKQVLNQIDKVKVWSRRPFGVVYEMEVDTLETTCHALDPTPLANCSVRQLTEHAVEGDCDFHILKQDGQFRVMHTQCHSTPVSKRKTHTTCPDCPSPIDLSNPSALEAATESLAKFNSKSPSKKYELVKVTKAMNQWVSGPAYYVEYLIKEAPCTKSQASCSLQHSDSEPVGICQGSTVQSSLRHVPLIQPVEKSVTVTCEFFESQPQPANANAVGPVPTANAALPADPPASVVVGPVVVPRGLSDHRTYHDLRHAFSPVASVESASGETLHSPKVGQPGAAGPVSPMCPGRIRHFKI	–	–	–	> 4 orders of magnitude	> 3 orders of magnitude	> 4 orders of magnitude
